The text below walks through data of the Human Domainome abundance scans (Beltran et al. 2025).

± gives the uncertainty stated by the source.

B1: Far upstream element-binding protein 1, residues 98 to 169; numbered along this chain, Q96AE4 (parent)
chain: RSVMTEEYKVPDGMVGFIIGRGGEQISRIQQESGCKIQIAPDSGGLPERSCMLTGTPESVQSAKRLLDQIVE

The variants in this series derive from B1. Briefly: abundance fitness (aPCA) (normalised: wild type 0, dead -1); higher = more abundant; growth selection in yeast, the domain comes from the species named. Particulars: Homo sapiens.
As to RSVMTEEYKVPDGMVGFIIGRGGEQISRIQQESGCKIQIAPDSGGLPERSCMLTGTPESVQSAKRLWDQIVE [L67W], the abundance fitness was -0.94 ± 0.038.
Take RSVMTEEYKVPDGMVGFIIGRGGEQISRIQQESGCKIQIAPDSGGLPERSCMLTGTPESVQSAKRLYDQIVE [L67Y]: the abundance fitness is -0.815 ± 0.072.
Consider RSVMTEEYKVPDGMVGFIIGRGGEQISRIQQESGCKIQIAPDSGGLPERSCMLTGTPESVQSAKRLSDQIVE [L67S], for which the abundance fitness is -0.648 ± 0.033.
In the case of RSVMTEEYKVPDGMVGFIIGRGGEQISRIQQESGCKIQIAPDSGGLPERSCMLTGTPESVQSAKRLVDQIVE [L67V], the abundance fitness was -0.145 ± 0.026.
As to RSVMTEEYKVPDGMVGFIIGRGGEQISRIQQESGCKIQIAPDSGGLPERSCMLTGTPESVQSAKRLTDQIVE [L67T], the abundance fitness is -0.534 ± 0.037.
Take RSVMTEEYKVPDGMVGFIIGRGGEQISRIQQESGCKIQIAPDSGGLPERSCMLTGTPESVQSAKRLLQQIVE [D68Q]: the abundance fitness was -0.058 ± 0.034.
Then RSVMTEEYKVPDGMVGFIIGRGGEQISRIQQESGCKIQIAPDSGGLPERSCMLTGTPESVQSAKRLLMQIVE [D68M], with -0.011 ± 0.032; and RSVMTEEYKVPDGMVGFIIGRGGEQISRIQQESGCKIQIAPDSGGLPERSCMLTGTPESVQSAKRLLCQIVE [D68C], with -0.065 ± 0.035; and RSVMTEEYKVPDGMVGFIIGRGGEQISRIQQESGCKIQIAPDSGGLPERSCMLTGTPESVQSAKRLLHQIVE [D68H], with -0.045 ± 0.043.
With RSVMTEEYKVPDGMVGFIIGRGGEQISRIQQESGCKIQIAPDSGGLPERSCMLTGTPESVQSAKRLLKQIVE [D68K], the abundance fitness was -0.001 ± 0.032.
In the case of RSVMTEEYKVPDGMVGFIIGRGGEQISRIQQESGCKIQIAPDSGGLPERSCMLTGTPESVQSAKRLLFQIVE [D68F], the abundance fitness was -0.052 ± 0.041.
For the variant RSVMTEEYKVPDGMVGFIIGRGGEQISRIQQESGCKIQIAPDSGGLPERSCMLTGTPESVQSAKRLLSQIVE [D68S], the abundance fitness is -0.012 ± 0.026.
Take RSVMTEEYKVPDGMVGFIIGRGGEQISRIQQESGCKIQIAPDSGGLPERSCMLTGTPESVQSAKRLLVQIVE [D68V]: the abundance fitness was -0.078 ± 0.026.
Then RSVMTEEYKVPDGMVGFIIGRGGEQISRIQQESGCKIQIAPDSGGLPERSCMLTGTPESVQSAKRLLRQIVE [D68R], with -0.019 ± 0.023; and RSVMTEEYKVPDGMVGFIIGRGGEQISRIQQESGCKIQIAPDSGGLPERSCMLTGTPESVQSAKRLLAQIVE [D68A], with 0.004 ± 0.026.
In the case of RSVMTEEYKVPDGMVGFIIGRGGEQISRIQQESGCKIQIAPDSGGLPERSCMLTGTPESVQSAKRLLWQIVE [D68W] it was -0.042 ± 0.032; in that of RSVMTEEYKVPDGMVGFIIGRGGEQISRIQQESGCKIQIAPDSGGLPERSCMLTGTPESVQSAKRLLLQIVE [D68L], -0.064 ± 0.026; in that of RSVMTEEYKVPDGMVGFIIGRGGEQISRIQQESGCKIQIAPDSGGLPERSCMLTGTPESVQSAKRLLTQIVE [D68T], -0.034 ± 0.03.
Turning to RSVMTEEYKVPDGMVGFIIGRGGEQISRIQQESGCKIQIAPDSGGLPERSCMLTGTPESVQSAKRLLPQIVE [D68P], the abundance fitness was -0.544 ± 0.037.
Consider RSVMTEEYKVPDGMVGFIIGRGGEQISRIQQESGCKIQIAPDSGGLPERSCMLTGTPESVQSAKRLLIQIVE [D68I], for which the abundance fitness was -0.093 ± 0.04.
In the case of RSVMTEEYKVPDGMVGFIIGRGGEQISRIQQESGCKIQIAPDSGGLPERSCMLTGTPESVQSAKRLLGQIVE [D68G] it was 0.014 ± 0.023; in that of RSVMTEEYKVPDGMVGFIIGRGGEQISRIQQESGCKIQIAPDSGGLPERSCMLTGTPESVQSAKRLLNQIVE [D68N], -0.025 ± 0.033; in that of RSVMTEEYKVPDGMVGFIIGRGGEQISRIQQESGCKIQIAPDSGGLPERSCMLTGTPESVQSAKRLLEQIVE [D68E], -0.023 ± 0.03.
With RSVMTEEYKVPDGMVGFIIGRGGEQISRIQQESGCKIQIAPDSGGLPERSCMLTGTPESVQSAKRLLDNIVE [Q69N], the abundance fitness is -0.02 ± 0.038.
Consider RSVMTEEYKVPDGMVGFIIGRGGEQISRIQQESGCKIQIAPDSGGLPERSCMLTGTPESVQSAKRLLDSIVE [Q69S], for which the abundance fitness is -0.018 ± 0.026.
In the case of RSVMTEEYKVPDGMVGFIIGRGGEQISRIQQESGCKIQIAPDSGGLPERSCMLTGTPESVQSAKRLLDCIVE [Q69C] it was -0.079 ± 0.033; in that of RSVMTEEYKVPDGMVGFIIGRGGEQISRIQQESGCKIQIAPDSGGLPERSCMLTGTPESVQSAKRLLDFIVE [Q69F], -0.097 ± 0.036.
In the case of RSVMTEEYKVPDGMVGFIIGRGGEQISRIQQESGCKIQIAPDSGGLPERSCMLTGTPESVQSAKRLLDEIVE [Q69E], the abundance fitness worked out at 0.023 ± 0.03.
Regarding RSVMTEEYKVPDGMVGFIIGRGGEQISRIQQESGCKIQIAPDSGGLPERSCMLTGTPESVQSAKRLLDLIVE [Q69L], the abundance fitness was -0.065 ± 0.024.
As for RSVMTEEYKVPDGMVGFIIGRGGEQISRIQQESGCKIQIAPDSGGLPERSCMLTGTPESVQSAKRLLDPIVE [Q69P], the abundance fitness is -0.097 ± 0.034.
Then RSVMTEEYKVPDGMVGFIIGRGGEQISRIQQESGCKIQIAPDSGGLPERSCMLTGTPESVQSAKRLLDAIVE [Q69A], with -0.006 ± 0.026; and RSVMTEEYKVPDGMVGFIIGRGGEQISRIQQESGCKIQIAPDSGGLPERSCMLTGTPESVQSAKRLLDVIVE [Q69V], with -0.014 ± 0.026.
As for RSVMTEEYKVPDGMVGFIIGRGGEQISRIQQESGCKIQIAPDSGGLPERSCMLTGTPESVQSAKRLLDGIVE [Q69G], the abundance fitness was -0.002 ± 0.023.
Then RSVMTEEYKVPDGMVGFIIGRGGEQISRIQQESGCKIQIAPDSGGLPERSCMLTGTPESVQSAKRLLDIIVE [Q69I], with -0.054 ± 0.036; and RSVMTEEYKVPDGMVGFIIGRGGEQISRIQQESGCKIQIAPDSGGLPERSCMLTGTPESVQSAKRLLDTIVE [Q69T], with -0.029 ± 0.03.
On to RSVMTEEYKVPDGMVGFIIGRGGEQISRIQQESGCKIQIAPDSGGLPERSCMLTGTPESVQSAKRLLDHIVE [Q69H], for which the abundance fitness was -0.041 ± 0.047.
RSVMTEEYKVPDGMVGFIIGRGGEQISRIQQESGCKIQIAPDSGGLPERSCMLTGTPESVQSAKRLLDRIVE [Q69R]: the abundance fitness was -0.009 ± 0.022.
In the case of RSVMTEEYKVPDGMVGFIIGRGGEQISRIQQESGCKIQIAPDSGGLPERSCMLTGTPESVQSAKRLLDKIVE [Q69K], the abundance fitness is -0.004 ± 0.033.
